Target: IL-2 receptor (IL-2R) on CTLL-2 cells
Assay: cell-based or functional assay

- mean effective dose (ED50), CTLL-2 proliferation (MTT assay): 0.34 ng/mL
Substance: Proleukin (recombinant human IL-2, Novartis Pharma GmbH; the Aldesleukin drug employed in the clinic) (from UniProt P60568 22-153) (ligand)
